T1: His-tagged P3028 (human, also: His-tag, terminus and sequence not given here)
T1 construct: used in solution in the PEPSCAN (rampo) ELISA; also called PGE73; His-tag-P3028; not shown: His tag
T1 peptide: VFDEFKPLVEEPQNLIK

T2: His-tagged P3028 peptide (PGE73) (human)
T2 construct: albumin-derived peptide, in solution at 0.5 ug/mL; not shown: His-tag
T2 peptide: VFDEFKPLVEEPQNLIK

No end group written: not given here.

The target in the first assay is T1, His-tagged P3028. Kind of assay: PEPSCAN ELISA (rampo). On the technique in general: In an ELISA, binding on a coated surface is turned into a signal by an enzyme label.
Turning to VKLSLFTER [SEQ ID NO 52], the binding result was “binds”.

Regarding KKLDTFFVKLSLFTER [SEQ ID NO 391], the “rampo score relative to the P28R control sample” value was ≥ 98 % of P28R control.

For KLDTFFVKLSLFTER [SEQ ID NO 46], the binding result is reported as “binds”. FVKL: the binding result is reported as “binds”. For FVKLSLFTER [SEQ ID NO 51], the binding result is “binds”. Same read-out and setting: to KKLDTFVKLSLFTER [SEQ ID NO 65] belongs “binds”; to KKLDTFFKLSLFTER [SEQ ID NO 66], “binds”. The same measure, in the same setting: the result for FFVKLSLFTER [SEQ ID NO 50] reads “binds”. Same read-out and setting: the result for TFFVKLSLFTER [SEQ ID NO 49] reads “binds”; that for KLSLFTER [SEQ ID NO 53], “binds”. KKLTFFVKLSLFTER [SEQ ID NO 64]: the binding result is “binds”. For the molecule KKLDTFFVKLSLFTE [SEQ ID NO 34], the binding result was “binds”. In the case of KKLDTFFVKLSLFTEF [SEQ ID NO 388], the “rampo score relative to the P28R control sample” value was ≥ 98 % of P28R control. Still for that read-out and setting: the result for KKLDTFFVKLSLFTEY [SEQ ID NO 393] reads ≥ 98 % of P28R control; that for KKLDTFFVKLSLFTET [SEQ ID NO 392], ≥ 98 % of P28R control. As for KKLDTFFVKLSLFTEN [SEQ ID NO 390], the “rampo score relative to the P28R control sample” value was ≥ 98 % of P28R control.

Take KKLDTFFVKLSLFTEK [SEQ ID NO 389]: the “rampo score relative to the P28R control sample” value was ≥ 98 % of P28R control. With KKLDTFFVKLSFTER [SEQ ID NO 68], the binding result is given as “binds”. On to LDTFFVKLSLFTER [SEQ ID NO 47], for which the binding result was “binds”. As for DTFFVKLSLFTER [SEQ ID NO 48], the binding result is reported as “binds”. Same read-out and setting: the result for KKFFVKLSLFTER [SEQ ID NO 76] reads “binds”.

In another assay the target is T2, His-tagged P3028 peptide (PGE73). Nature of the assay: PEPSCAN ELISA, peptide on card.
Description: After washing, the peroxidase substrate 2,2′-azine-di-3-ethylbenzthiazoline sulfonate (ABTS) and 2 μL of 3% H2O2 were added. The binding capacity of the mAb was measured as a color development at 405 nm (optical density, OD405). The color development was quantified with a charge-coupled device (CCD)—camera and an image processing system.
The OD405-values obtained by a CCD-camera was considered as raw data values (“rampo values,” “rampo units,” or “rampo scores”). […] First the CCD-camera made a picture of the card before peroxidase coloring and then again a picture after the peroxidase coloring. […] These values were copied into an excel file and labeled as a raw data file. One follow-up manipulation was allowed. Sometimes a well can contain an air-bubble resulting in a false-positive value. If manual inspection of the cards detect an air-bubble the value are set to 0 for that well.
Regarding AKLDTFFVKLSLFTER [SEQ ID NO: 268 AKLDTFFVKLSLFTER], the “RAMPO Score” value was 466. Turning to NKLDTFFVKLSLFTER [SEQ ID NO: 276 NKLDTFFVKLSLFTER], the “RAMPO Score” value was 445. Still for that read-out and setting: the result for LKLDTFFVKLSLFTER [SEQ ID NO: 274 LKLDTFFVKLSLFTER] reads 449; that for KKIDTFFVKLSLFTER [SEQ ID NO: 289 KKIDTFFVKLSLFTER], 454; that for IKLDTFFVKLSLFTER [SEQ ID NO: 273 IKLDTFFVKLSLFTER], 483. Regarding KKSDTFFVKLSLFTER [SEQ ID NO: 295 KKSDTFFVKLSLFTER], the “RAMPO Score” value is 393.

Regarding KKMDTFFVKLSLFTER [SEQ ID NO: 291 KKMDTFFVKLSLFTER], the “RAMPO Score” value was found to be 460. The same measure, in the same setting: the result for EKLDTFFVKLSLFTER [SEQ ID NO: 270 EKLDTFFVKLSLFTER] reads 396; that for PKLDTFFVKLSLFTER [SEQ ID NO: 277 PKLDTFFVKLSLFTER], 387; that for KKLETFFVKLSLFTER [SEQ ID NO: 299 KKLETFFVKLSLFTER], 417. Same read-out and setting: to KKLITFFVKLSLFTER [SEQ ID NO: 300 KKLITFFVKLSLFTER] belongs 430. KKGDTFFVKLSLFTER [SEQ ID NO: 287 KKGDTFFVKLSLFTER]: the “RAMPO Score” value is 563. For the molecule KKVDTFFVKLSLFTER [SEQ ID NO: 297 KKVDTFFVKLSLFTER], the “RAMPO Score” value came out at 377. The same measure, in the same setting: the result for KKLDCFFVKLSLFTER [SEQ ID NO: 304 KKLDCFFVKLSLFTER] reads 449.

On to KKKDTFFVKLSLFTER [SEQ ID NO: 290 KKKDTFFVKLSLFTER], for which the “RAMPO Score” value was determined as 386.

With KKHDTFFVKLSLFTER [SEQ ID NO: 288 KKHDTFFVKLSLFTER], the “RAMPO Score” value amounted to 477. KKDDTFFVKLSLFTER [SEQ ID NO: 284 KKDDTFFVKLSLFTER]: the “RAMPO Score” value is 492. Consider KKLWTFFVKLSLFTER [SEQ ID NO: 302 KKLWTFFVKLSLFTER], for which the “RAMPO Score” value came out at 443. Consider KKLDNFFVKLSLFTER [SEQ ID NO: 306 KKLDNFFVKLSLFTER], for which the “RAMPO Score” value was 436.

In the case of KKQDTFFVKLSLFTER [SEQ ID NO: 293 KKQDTFFVKLSLFTER], the “RAMPO Score” value was determined as 473. KKRDTFFVKLSLFTER [SEQ ID NO: 294 KKRDTFFVKLSLFTER]: the “RAMPO Score” value was found to be 370. For KKFDTFFVKLSLFTER [SEQ ID NO: 286 KKFDTFFVKLSLFTER], the “RAMPO Score” value was 393. Still for that read-out and setting: the result for KKLDMFFVKLSLFTER [SEQ ID NO: 305 KKLDMFFVKLSLFTER] reads 475; that for KKEDTFFVKLSLFTER [SEQ ID NO: 285 KKEDTFFVKLSLFTER], 528; that for KKLATFFVKLSLFTER [SEQ ID NO: 298 KKLATFFVKLSLFTER], 494.

Turning to VKLDTFFVKLSLFTER [SEQ ID NO: 281 VKLDTFFVKLSLFTER], the “RAMPO Score” value turned out to be 442. The same measure, in the same setting: the result for RKLDTFFVKLSLFTER [SEQ ID NO: 279 RKLDTFFVKLSLFTER] reads 523; that for KKLYTFFVKLSLFTER [SEQ ID NO: 303 KKLYTFFVKLSLFTER], 422; that for KKLDSFFVKLSLFTER [SEQ ID NO: 310 KKLDSFFVKLSLFTER], 458. Same read-out and setting: to KKTDTFFVKLSLFTER [SEQ ID NO: 296 KKTDTFFVKLSLFTER] belongs 451; to QKLDTFFVKLSLFTER [SEQ ID NO: 278 QKLDTFFVKLSLFTER], 455.

Regarding KKLVTFFVKLSLFTER [SEQ ID NO: 301 KKLVTFFVKLSLFTER], the “RAMPO Score” value is 424. With DKLDTFFVKLSLFTER [SEQ ID NO: 269 DKLDTFFVKLSLFTER], the “RAMPO Score” value worked out at 373.

Regarding MKLDTFFVKLSLFTER [SEQ ID NO: 275 MKLDTFFVKLSLFTER], the “RAMPO Score” value stood at 457. Still for that read-out and setting: to HKLDTFFVKLSLFTER [SEQ ID NO: 272 HKLDTFFVKLSLFTER] belongs 428; to KKLDPFFVKLSLFTER [SEQ ID NO: 307 KKLDPFFVKLSLFTER], 427. On to GKLDTFFVKLSLFTER [SEQ ID NO: 271 GKLDTFFVKLSLFTER], for which the “RAMPO Score” value came to 367. Same read-out and setting: the result for TKLDTFFVKLSLFTER [SEQ ID NO: 280 TKLDTFFVKLSLFTER] reads 493; that for KKLDQFFVKLSLFTER [SEQ ID NO: 308 KKLDQFFVKLSLFTER], 535.

Take KKCDTFFVKLSLFTER [SEQ ID NO: 283 KKCDTFFVKLSLFTER]: the “RAMPO Score” value was determined as 432. Take KKADTFFVKLSLFTER [SEQ ID NO: 282 KKADTFFVKLSLFTER]: the “RAMPO Score” value is 427. As to KKNDTFFVKLSLFTER [SEQ ID NO: 292 KKNDTFFVKLSLFTER], the “RAMPO Score” value is 374. Same read-out and setting: the result for KKLDRFFVKLSLFTER [SEQ ID NO: 309 KKLDRFFVKLSLFTER] reads 430.

The record behind these values is patent publication US20170298096A1 (CANIMGUIDE THERAPEUTICS, published 2017).
